In the supplement of paper PMC7877785:
± gives the uncertainty stated by the source.

Test: self-splicing fitness, log relative to wild type (ln ratio); higher = more splicing; Tetrahymena group I intron in knt gene, E. coli kanamycin selection, DiMSum; sequences stand for … in CUCUCU…GGAGGGAAAAGUUAUCAGGCAUGCACCUGGUAGCUAGUCUUUAAACCAAUAGAUUGCAUCGGUUUAAAAGGCAAGACCGUCAAAUUGCGGGAAAGGGGUCAACAGCCGUUCAGUACCAAGUCUCAGGGGAAACUUUGAGAUGGCCUUGCAAAGGGUAUGGUAAUAAGCUGACGGACAUGGUCCUAACCACGCAGCCAAGUCCUAAGUCAACAGAUCUUCUGUUGAUAUGGAUGCAGUUCACAGACUAAAUGUCGGUCGGGGAAGAUGUAUUCUUCUCAUAAGAUAUAGUCGGACCUCUCCUUAAUGGGAGCUAGCGGAUGAAGUGAUGCAACACUGGAGCCGCUGGGAACUAAUUUGUAUGCGAAAGUAUAUUGAUUAGUUUUGGAGUACUCGUGGUCG
How it was run: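 Fitness was computed with DiMSum as the error-weighted combination of replicate fold changes, kanamycin versus none, each normalised to wild type. The library randomised all eight intron nucleotides of the P1ex region, with the intron placed in the knt kanamycin-resistance gene on pET-22b(+) in E. coli BL21(DE3). Six replicate transformations were grown overnight at 37°C or 30°C on LB agar with or without 25 μg/mL kanamycin, plus 100 μg/mL carbenicillin, 50 μM IPTG and 0.2% rhamnose. Pooled colonies were amplicon-sequenced on an Illumina HiSeq 2500.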

Row | Sequence | self-splicing fitness (ln) (30 °C) | self-splicing fitness (ln) (37 °C)
1 | CGUCAGCAAUAUUACGACUC | -0.282 ± 0.11 | 0.339 ± 0.16
2 | CGUCAGCAAUAUUACGCCCG | -1.23 ± 0.17 | -0.0073 ± 0.24
3 | CGUCAGCAAUAUUACGCCUC |  | -3.1 ± 0.34
4 | CGUCAGCAAUAUUACGCCUG | -0.469 ± 0.099 | 0.582 ± 0.12
5 | CGUCAGCAAUAUUACGCGAC | -2.57 ± 0.49 | 
6 | CGUCAGCAAUAUUACGCGAU | -3.23 ± 0.29 | -1.76 ± 0.42
7 | CGUCAGCAAUAUUACGCGUA | -1.93 ± 0.18 | -0.985 ± 0.12
8 | CGUCAGCAAUAUUACGCUGA | -2.3 ± 0.3 | -1.89 ± 0.33
9 | CGUCAGCAAUAUUACGGACA | -0.0785 ± 0.094 | 0.394 ± 0.15
10 | CGUCAGCAAUAUUACGGAUU | -1.35 ± 0.1 | -0.245 ± 0.1
11 | CGUCAGCAAUAUUACGGUAC | -3.64 ± 0.31 | -1.89 ± 0.27
12 | CGUCAGCAAUAUUACGUGCU | -3.04 ± 0.26 | -2.39 ± 0.27
13 | CGUCAGCAAUAUUACGUGUA | -3.11 ± 0.099 | -1.66 ± 0.083
14 | CGUCAGCAAUAUUACGUUGA | -3.04 ± 0.26 | -2.26 ± 0.19
15 | CGUCAGCAAUAUUACGUUGC | -3.95 ± 0.26 | -2.89 ± 0.18
16 | CGUGAGCAAUAUUACGAAUU |  | -0.866 ± 0.17
17 | CGUGAGCAAUAUUACGACUA | -2.94 ± 0.47 | -1.94 ± 0.36
18 | CGUGAGCAAUAUUACGAGUA |  | -0.918 ± 0.47
19 | CGUGAGCAAUAUUACGCCAA | -3.41 ± 0.36 | 
20 | CGUGAGCAAUAUUACGCGUA |  | -1.86 ± 0.47
21 | CGUGAGCAAUAUUACGCGUC | -3.12 ± 0.31 | 
22 | CGUGAGCAAUAUUACGCUCA | -2.84 ± 0.31 | 
23 | CGUGAGCAAUAUUACGCUUU | -2.54 ± 0.35 | -1.98 ± 0.28
24 | CGUGAGCAAUAUUACGGAAA | -2.27 ± 0.3 | -1.14 ± 0.27
25 | CGUGAGCAAUAUUACGGAUA | -3.1 ± 0.3 | -2.71 ± 0.34
26 | CGUGAGCAAUAUUACGGUCG | -1.17 ± 0.083 | -0.688 ± 0.13
27 | CGUGAGCAAUAUUACGUACA | -1.46 ± 0.053 | -0.707 ± 0.059

Row | Sequence | self-splicing fitness (ln) (30 °C) | self-splicing fitness (ln) (37 °C)
28 | CGUGAGCAAUAUUACGUAGG | -1.12 ± 0.089 | -1.39 ± 0.12
29 | CGUGAGCAAUAUUACGUGAC | -4.11 ± 0.36 | 
30 | CGUGAGCAAUAUUACGUGUC | -3 ± 0.4 | -3.04 ± 0.43
31 | CGUGAGCAAUAUUACGUGUG | -1.39 ± 0.1 | -0.501 ± 0.1
32 | CGUGAGCAAUAUUACGUUUG | -2.04 ± 0.12 | -1.5 ± 0.21
33 | CGUUAGCAAUAUUACGAAGA | -2.24 ± 0.29 | 
34 | CGUUAGCAAUAUUACGAAUA | -1.54 ± 0.17 | -1.69 ± 0.36
35 | CGUUAGCAAUAUUACGACCC | -2.92 ± 0.43 | 
36 | CGUUAGCAAUAUUACGAGGG | -3.63 ± 0.47 | -0.739 ± 0.19
37 | CGUUAGCAAUAUUACGCAAG | -1.97 ± 0.13 | -1.18 ± 0.14
38 | CGUUAGCAAUAUUACGCCUG | -0.175 ± 0.085 | 0.664 ± 0.1
39 | CGUUAGCAAUAUUACGCGCA | -1.01 ± 0.29 | -0.131 ± 0.47
40 | CGUUAGCAAUAUUACGCUUU |  | -2.41 ± 0.3
41 | CGUUAGCAAUAUUACGGCCU | -1.53 ± 0.15 | -1.26 ± 0.23
42 | CGUUAGCAAUAUUACGGGAU |  | -2.25 ± 0.26
43 | CGUUAGCAAUAUUACGGGGU | -3.72 ± 0.24 | -2.03 ± 0.35
44 | CGUUAGCAAUAUUACGGUCG | -1.03 ± 0.11 | 0.369 ± 0.12
45 | CGUUAGCAAUAUUACGUCGU |  | -1.81 ± 0.33
46 | CGUUAGCAAUAUUACGUGGC | -2.5 ± 0.25 | -2.75 ± 0.25
47 | CGUUAGCAAUAUUACGUGUG | -0.838 ± 0.062 | -1.12 ± 0.08
48 | CGUUAGCAAUAUUACGUUGG | -1.45 ± 0.091 | -0.573 ± 0.12
49 | CUAAAGCAAUAUUACGAAAG | 0.0922 ± 0.092 | 0.21 ± 0.12
50 | CUAAAGCAAUAUUACGACUA | -2.79 ± 0.21 | -1.78 ± 0.17
51 | CUAAAGCAAUAUUACGAGGA | -4.32 ± 0.29 | -1.62 ± 0.27
52 | CUAAAGCAAUAUUACGAUGG | -0.196 ± 0.058 | 0.0185 ± 0.091
53 | CUAAAGCAAUAUUACGAUUC | -3.33 ± 0.31 | -3.73 ± 0.46
